Measurements from paper doi:10.1101/2020.04.30.070086 (bioRxiv, 2020).

Target: T1, keratin 1 (K1) (UniProt P04104 1-637)
T1 sequence (looked up): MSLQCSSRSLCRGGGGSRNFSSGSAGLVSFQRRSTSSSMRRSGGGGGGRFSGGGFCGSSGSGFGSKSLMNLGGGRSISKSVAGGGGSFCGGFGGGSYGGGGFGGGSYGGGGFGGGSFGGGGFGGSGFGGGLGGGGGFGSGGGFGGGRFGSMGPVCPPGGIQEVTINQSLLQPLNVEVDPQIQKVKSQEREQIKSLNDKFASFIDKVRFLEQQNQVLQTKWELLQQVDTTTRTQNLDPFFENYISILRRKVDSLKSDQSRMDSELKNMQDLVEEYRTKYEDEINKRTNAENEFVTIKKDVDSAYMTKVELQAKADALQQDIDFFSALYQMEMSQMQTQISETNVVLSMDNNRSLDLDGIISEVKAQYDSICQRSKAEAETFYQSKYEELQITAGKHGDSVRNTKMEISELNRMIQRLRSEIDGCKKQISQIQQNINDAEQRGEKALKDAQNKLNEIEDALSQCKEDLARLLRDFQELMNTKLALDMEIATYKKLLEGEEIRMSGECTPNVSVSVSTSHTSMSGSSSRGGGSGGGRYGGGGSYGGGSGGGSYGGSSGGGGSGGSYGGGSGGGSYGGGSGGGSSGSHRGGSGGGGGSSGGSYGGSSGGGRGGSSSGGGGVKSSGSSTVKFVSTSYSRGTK
Test: co-sedimentation

B1: keratin 10 (K10), full length (natural protein, UniProt P02535-2 1-561, looked up)
chain: MSVLYSSSSKQFSSSRSGGGGGGGSVRVSSTRGSLGGGYSSGGFSGGSFSRGSSGGGCFGGSSGGYGGFGGGGSFGGGYGGSSFGGGYGGSSFGGGSFGGGGSFGGGSFGGGSYGGGFGGGGFGGDGGSLLSGNEKVTMQNLNDRLASYMDKVRALEESNYELEGKIKEWYEKHGNSSQREPRDYSKYYKTIEDLKGQILTLTTDNANVLLQIDNARLAADDFRLKYENEVTLRQSVEADINGLRRVLDELTLSKSDLEMQIESLNEELAYLKKNHEEEMRDLQNVSTGDVNVEMNAAPGVDLTQLLNNMRNQYEQLAEKNRKDAEEWFNQKSKELTTEIDSNIEQMSSHKSEITELRRTVQGLEIELQSQLALKQSLEASLAETEGRYCVQLSQIQSQISALEEQLQQIRAETECQNAEYQQLLDIKTRLENEIQTYRSLLEGEGSSSGGGGGRRGGSGGGSYGGSSGGGSYGGSSGGGGSYGGSSGGGGSYGGGSSGGGSHGGSSGGGYGGGSSSGGAGGHGGSSGGGYGGGSSSGGQGGSGGFKSSGGGDQSSKGPRY
binding result: binds
